The values below come from article PMC6395372, “Myosin Va interacts with the exosomal protein spermine synthase” (Bioscience Reports, 2019).

Data set [1] deals with the molecule itself. Nature of the data set: SEC; Superdex 75 pg 16/600, 20 mM HEPES, 150 mM NaCl, 5% glycerol, pH 7.4; SMS dimers at Ve ~70 mL. (In general: SEC sorts molecules by how far they enter the pores of the column.)
The target in data set [2] is T1, MyoVa-GTD, wild type (globular tail domain of myosin Va) (human, UniProt Q9Y4I1 1448-1855).
T1 construct: Myosin Va, human, wild-type globular tail domain; limits are printed only for the EE two-hybrid construct (1448-1855 of NP_000250.3); In pET28a-TEV; Limits probably 1448-1855 as for the EE construct; also called TEV-treated MyoVa-GTD; source: E. coli BL21(DE3)∆SlyD pRARE2, purified (HiTrap Chelating, TEV cleavage, Superdex 200)
Nature of the data set: MST; Monolith NT.115, LED power 40%, MST power 60%; 50 nM His-tagged SMS labelled with RED-tris-NTA, serial dilution of MyoVa-GTD; 20 mM HEPES, 150 mM NaCl, 5% glycerol, pH 7.4; triplicate; Hill fit. The settings on record: both partners purified.

T1 sequence (Q9Y4I1 1448-1855): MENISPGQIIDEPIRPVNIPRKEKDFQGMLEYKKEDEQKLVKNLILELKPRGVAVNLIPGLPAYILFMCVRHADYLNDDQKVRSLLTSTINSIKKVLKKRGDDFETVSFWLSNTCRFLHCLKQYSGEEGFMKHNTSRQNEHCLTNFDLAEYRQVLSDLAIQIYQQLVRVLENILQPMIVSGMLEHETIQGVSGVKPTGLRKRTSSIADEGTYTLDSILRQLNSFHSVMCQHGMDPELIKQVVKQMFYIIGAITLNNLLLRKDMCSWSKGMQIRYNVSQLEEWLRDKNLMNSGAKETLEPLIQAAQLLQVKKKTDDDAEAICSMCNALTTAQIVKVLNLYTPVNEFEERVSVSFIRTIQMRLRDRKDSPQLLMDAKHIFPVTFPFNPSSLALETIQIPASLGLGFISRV

B1: Spermine synthase (SMS), full length, His-tagged (enzyme, human, UniProt P52788-1 1-366, looked up)
chain: MAAARHSTLDFMLGAKADGETILKGLQSIFQEQGMAESVHTWQDHGYLATYTNKNGSFANLRIYPHGLVLLDLQSYDGDAQGKEEIDSILNKVEERMKELSQDSTGRVKRLPPIVRGGAIDRYWPTADGRLVEYDIDEVVYDEDSPYQNIKILHSKQFGNILILSGDVNLAESDLAYTRAIMGSGKEDYTGKDVLILGGGDGGILCEIVKLKPKMVTMVEIDQMVIDGCKKYMRKTCGDVLDNLKGDCYQVLIEDCIPVLKRYAKEGREFDYVINDLTAVPISTSPEEDSTWEFLRLILDLSMKVLKQDGKYFTQGNCVNLTEALSLYEEQLGRLYCPVEFSKEIVCVPSYLELWVFYTVWKKAKP
modifications: RED-tris-NTA dye label on the His-tag (in the MST assay)
notes: Spermine synthase, human, full-length ORF (NM_004595.4, 253-1353 pb) amplified from a human cDNA library; In pET28a-TEV; the fractions with SMS dimers were used in MST; also called 6xHis-SMS; His-tagged-labeled-SMS; source: E. coli BL21(DE3)∆SlyD pRARE2, purified (HiTrap Chelating, Superdex 75)
As for B1, the “stoichiometry N” value in data set [1] amounted to 2. The molecule also showed a Kd in data set [2] of 3.5 ± 0.5 µM.

For orientation: stoichiometry N means the number of molecules, sites or subunits per partner or assembly. In general, Kd refers to the free concentration of one partner at which half of the binding sites on the other are occupied at equilibrium, for simple one-to-one binding. Higher therefore signals a looser complex.
